B1: library; numbered along this chain (parent)
chain: MAAAGGARLLRAASAVLGGPAGRWLHHAGSRAGSSGLLRNRGPGGSAEASRSLSVSARARSSSEDKITVHFINRDGETLTTKGKVGDSLLDVVVENNLDIDGFGACEGTLACSTCHLIFEDHIYEKLDAITDEENDMLDLAYGLTDRSRLGCQICLTKSMDNMTVRVPETVADARQSIDVGKTS

Variants of: B1
Experiment: scaled log2 fold change in cell abundance, elesclomol vs control (0 = silent mean, 1 = nonsense mean) (scaled log2 ratio); higher = higher viability under elesclomol (loss of FDX1 cuproptosis function)
Conditions: glucose 10 mM
Description: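 Deep mutational scan of full-length human FDX1: a pooled saturation-mutagenesis ORF library (every residue 2-184 mutated to all 19 amino acids plus stop, and silent codons where available) was expressed by lentivirus in FDX1-knockout ABC1 (14 days) or HEK293T (11 days) cells grown with elesclomol (ES) or DMSO control. Variant abundance came from ORF sequencing. The log2 fold change (ES vs control, mean of duplicates) was centred on the silent-variant mean (0) and scaled to the nonsense-variant mean (1). Higher values mean greater viability under ES, i.e. loss of FDX1 function in cuproptosis.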

[1] = with ABC1 FDX1 KO, elesclomol 5 nM, 14 days
[2] = with HEK293T FDX1 KO, elesclomol 40 nM, 11 days
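Note: variant abundance is its share of total variant reads in each endpoint sample, from next-generation sequencing of the integrated ORF PCR-amplified out of genomic DNA.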

Row | Variant | scaled log2 fold change [1] | scaled log2 fold change [2]
1 | D87K | 0.34 | 0.127
2 | D87I | -0.274 | -0.421
3 | D87P | 0.439 | -0.0143
4 | D87C | -0.824 | -0.252
5 | D87T | -0.14 | 
6 | D87S | -0.493 | 
7 | D87H | -0.183 | 0.121
8 | D87F | 0.195 | -0.393
9 | D87E | -0.224 | 0.0766
10 | D87Y | -0.31 | -0.0378
11 | D87V | -0.164 | -0.704
12 | D87A | 0.0673 | 
13 | D87Q | -0.303 | 0.511
14 | D87L | -0.301 | -0.549
15 | D87G | -0.161 | -0.147
16 | D87M | 0.055 | -0.441
17 | D87N | -0.0848 | 
18 | D87W | -0.221 | -0.509
19 | D87R | -0.147 | 
20 | D91G | 0.216 | 0.254
21 | D91E | -0.0305 | 1.04
22 | D91H | -0.00925 | -0.865
23 | D91I | 0.418 | -0.331
24 | D91F | 0.29 | -0.219

Row | Variant | scaled log2 fold change [1] | scaled log2 fold change [2]
25 | D91C | 0.188 | 0.246
26 | V85S | 0.131 | -0.121
27 | V85M | 0.00542 | -0.0343
28 | V85L | -0.101 | 0.47
29 | V85K | 0.192 | -0.177
30 | V85H | -0.166 | -0.307
31 | V85W | 0.119 | 0.889
32 | V85A | 0.0788 | -0.325
33 | V85R | 0.266 | -0.792
34 | V85E | -0.055 | -0.248
35 | V85D | 0.12 | -0.189
36 | V85Y | -0.534 | -0.0166
37 | V85I | -0.161 | -0.597
38 | V85P | -0.0817 | -1.46
39 | V85Q | 0.0746 | -0.0938
40 | V85C | -0.197 | -0.0853
41 | V85T | -0.279 | -0.55
42 | V85N | -0.0121 | 0.0182
43 | V85F | 0.217 | 1.05
44 | V85G | 0.265 | 0.288
45 | G86N | 0.233 | 
46 | G86P | 0.208 | 0.284
47 | G86I | 0.576 | 0.0646
48 | G86K | 0.242 | -0.0346

Row | Variant | scaled log2 fold change [1] | scaled log2 fold change [2]
49 | G86L | 0.171 | 0.00376
50 | G86Y | 0.0464 | 0.586
51 | G86E | 0.115 | 0.852
52 | G86H | 0.239 | 0.453
53 | G86M | -0.125 | -0.231
54 | G86T | 0.117 | -0.144
55 | G86V | 0.654 | 0.478
56 | G86C | 0.175 | 1.4
57 | G86D | 0.248 | -0.689
58 | G86R | 0.269 | -0.218
59 | G86F | 0.287 | -0.571
60 | G86Q | -0.2 | 0.928
61 | G86W | 0.246 | 
62 | G86S | 0.0131 | 0.985
63 | G86A | 0.349 | 0.0692
64 | S88L | 0.0552 | 
65 | S88N | 0.582 | 
66 | S88E | 0.289 | 0.37
67 | S88T | -0.996 | -0.234
68 | S88C | 0.057 | 1.32
69 | S88I | 0.199 | 
70 | S88F | 0.301 | 
71 | S88W | 0.356 | -0.287
72 | S88V | -0.223 | 0.0665

Row | Variant | scaled log2 fold change [1] | scaled log2 fold change [2]
73 | S88Q | 0.191 | -0.766
74 | S88A | 0.0293 | 0.31
75 | S88G | 0.17 | 0.309
76 | L89W | 0.552 | 1.33
77 | L89C | -0.261 | 0.257
78 | L89D | 1.11 | 1.26
79 | L89S | 1.06 | 0.924
80 | L89G | 0.853 | 0.301
81 | L89H | 1.34 | 0.109
82 | L89T | -0.121 | -0.104
83 | L89Y | 0.534 | 0.223
84 | L89R | 1.16 | 0.853
85 | L89F | 0.706 | 0.454
86 | L89K | 1.05 | 1.47
87 | L89E | 0.919 | 0.768
88 | L89A | -0.0423 | 
89 | L89V | 0.313 | -0.151
90 | L89M | 0.256 | 0.404
91 | L89N | 1.2 | 0.434
92 | L89P | 0.89 | 0.172
93 | L89Q | 1.64 | 0.508
94 | K84Q | 0.0208 | -0.794
95 | K84Y | -0.449 | 0.782
96 | K84W | 0.191 | -0.16

Row | Variant | scaled log2 fold change [1] | scaled log2 fold change [2]
97 | K84S | 0.112 | 0.32
98 | K84T | -0.0915 | -0.906
99 | K84V | 0.289 | -0.902
100 | K84R | -0.138 | -0.784
101 | K84P | 0.11 | 1.21
102 | L90N | 0.293 | -0.049
103 | L90A | -0.423 | 
104 | L90W | -0.148 | 0.134
105 | L90P | 0.597 | 0.277
106 | L90Q | -0.132 | -0.0146
107 | L90G | 0.46 | 0.288
108 | L90E | 0.187 | 0.205
109 | L90R | -0.127 | -0.461
110 | L90H | -0.379 | 1.81
111 | L90C | 0.079 | 0.931
112 | L90S | -1 | 0.27
113 | L90T | -0.871 | -0.404
114 | L90D | 0.478 | 0.245
115 | L90M | -0.268 | -0.239
116 | L90I | -0.268 | 0.924
117 | L90K | 0.0261 | 
118 | L90F | 0.00898 | -0.179
119 | L90Y | -0.103 | 
120 | L90V | -0.0886 | -0.208

Reference: the supplement of paper PMC12855868
